This experiment has as its target CXCL8 (human).

B1: Evasin 3 (EVA3) (natural protein)
chain: DGGLVSTIESRTSGDGADNFDVVSCNKNCTSGQNECPEGCFCGLLGQNKKGHCYKIIGNLSGEPPVVRR
modifications: also: glycosylated
B1 displayed a neutralization of human CXCL8-induced granulocyte migration (Transwell, EC80 dose of CXCL8, EVA3 0.02–100 nM); mean IC50 of four biological replicates of 1.94e-09 M.

These data come from publication PMC6643034.
